Reference: PMC2837123

Target: PFV integrase (IN) (prototype foamy virus, UniProt P14350 752-1143)
Test: crystal structure

B1: pre-processed PFV U5 end (17/19 nt) (dsDNA)
DNA 1: TACAAAATTCCATGACA
DNA 2: ATTGTCATGGAATTTTGTA
- binding result: binds
